T1: circularly permuted human TfR apical domain (human)
T1 construct: TfR residues 326-379 stand N-terminal to 194-296, loop 297-325 deleted; also called huTfR Apical Domain
T1 chain: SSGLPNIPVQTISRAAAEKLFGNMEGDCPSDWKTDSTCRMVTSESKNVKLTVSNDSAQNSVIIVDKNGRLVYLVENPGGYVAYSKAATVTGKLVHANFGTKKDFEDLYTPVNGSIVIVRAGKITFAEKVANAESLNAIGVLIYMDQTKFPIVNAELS

T2: circularly permuted cyno TfR apical domain (cynomolgus monkey)
T2 construct: same design as the human construct; also called cyTfR Apical Domain; cynomolgus TfR apical domain
T2 chain: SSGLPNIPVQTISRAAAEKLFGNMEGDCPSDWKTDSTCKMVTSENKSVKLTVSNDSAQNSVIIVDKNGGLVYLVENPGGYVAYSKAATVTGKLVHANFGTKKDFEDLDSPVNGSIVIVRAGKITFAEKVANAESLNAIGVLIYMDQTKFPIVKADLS


Tests used:
[1] = biological target: T1, circularly permuted human TfR apical …; experiment: SPR, supernatant, anti-Fab capture
Protocol: (§1) Clones were expressed in HEK293 cells. Supernatants were captured for SPR by GE Healthcare anti-human Fab capture kit and the affinity to human and cyno TfR apical domain was measured (Table 30). The clones in Table 30 were bivalent and each TfR-binding Fc polypeptide also contained P329G and LALA mutations.

[2] = biological target: T2, circularly permuted cyno TfR apical …; experiment: SPR, supernatant, anti-Fab capture
Protocol: as §1

Row | Binder | Kd [1] | Kd [2]
1 | 6.5.11.1 (Fc fusion, P329G+LALA) APEAAGGPSVFLFPPKPKDTLMISRTPEVTCVVVDVSHEDPEVKFNWYVDGVEVHNAKTKPREEQYNSTYRVVSVLTVLHQDWLNGKEYKCKVSNKALGAPIEKTISKAKGQPREPQVYTLPPSRDELTKNQVSLTCLVKGFYPSDIAVNWFSNGQIENNYKTTPPVLDSDGSFFLYSKLTVDKSRWQQGNLFACEVMHEALHNHYTYKLLSLSPGK | 10 µM | 
2 | 42.8.99 (Fc fusion, bivalent; P329G+LALA) APEAAGGPSVFLFPPKPKDTLMISRTPEVTCVVVDVSHEDPEVKFNWYVDGVEVHNAKTKPREEQYNSTYRVVSVLTVLHQDWLNGKEYKCKVSNKALGAPIEKTISKAKGQPREPQVYTLPPSRDELTKNQVSLTCLVKGFYPSDIAVEWFSEDQKESNYKTTPPVLDSDGSFFLYSKLTVDKSRWQQGNLFACEVMHEALHNHYTYKLLSLSPGK | 6.38 µM | 
3 | 42.8.57 (Fc fusion, bivalent; P329G+LALA) APEAAGGPSVFLFPPKPKDTLMISRTPEVTCVVVDVSHEDPEVKFNWYVDGVEVHNAKTKPREEQYNSTYRVVSVLTVLHQDWLNGKEYKCKVSNKALGAPIEKTISKAKGQPREPQVYTLPPSRDELTKNQVSLTCLVKGFYPSDIAVEWFSDASKESNYKTTPPVLDSDGSFFLYSKLTVDKSRWQQGNLFACEVMHEALHNHYTYKLLSLSPGK | 4.9 µM | 
4 | 42.8.71 (Fc fusion, bivalent; P329G+LALA) APEAAGGPSVFLFPPKPKDTLMISRTPEVTCVVVDVSHEDPEVKFNWYVDGVEVHNAKTKPREEQYNSTYRVVSVLTVLHQDWLNGKEYKCKVSNKALGAPIEKTISKAKGQPREPQVYTLPPSRDELTKNQVSLTCLVKGFYPSDIAVEWFSDDSKLTNYKTTPPVLDSDGSFFLYSKLTVDKSRWQQGNLFACEVMHEALHNHYTYKLLSLSPGK | 3 µM | 12.9 µM
5 | 42.8.63 (Fc fusion, bivalent; P329G+LALA) APEAAGGPSVFLFPPKPKDTLMISRTPEVTCVVVDVSHEDPEVKFNWYVDGVEVHNAKTKPREEQYNSTYRVVSVLTVLHQDWLNGKEYKCKVSNKALGAPIEKTISKAKGQPREPQVYTLPPSRDELTKNQVSLTCLVKGFYPSDIAVEWFSDDQKESNYKTTPPVLDSDGSFFLYSKLTVDKSRWQQGNLFACEVMHEALHNHYTYKLLSLSPGK | 4.19 µM | 4.94 µM
6 | 6.5.11.7.122 (Fc fusion, bivalent; P329G+LALA) APEAAGGPSVFLFPPKPKDTLMISRTPEVTCVVVDVSHEDPEVKFNWYVDGVEVHNAKTKPREEQYNSTYRVVSVLTVLHQDWLNGKEYKCKVSNKALGAPIEKTISKAKGQPREPQVYTLPPSRDELTKNQVSLTCLVKGFYPSDIAVFWFSNGQRENNYKTTPPVLDSDGSFFLYSKLTVDKSRWQQGNLFACEVMHEALHNHYTYKLLSLSPGK | 4.6 µM | 
7 | 42.8.17 (Fc fusion, bivalent; P329G+LALA) APEAAGGPSVFLFPPKPKDTLMISRTPEVTCVVVDVSHEDPEVKFNWYVDGVEVHNAKTKPREEQYNSTYRVVSVLTVLHQDWLNGKEYKCKVSNKALGAPIEKTISKAKGQPREPQVYTLPPSRDELTKNQVSLTCLVKGFYPSDIAVEWFSGAQKLTNYKTTPPVLDSDGSFFLYSKLTVDKSRWQQGNLFACEVMHEALHNHYTYKLLSLSPGK | 10.4 µM | 
8 | 42.8.87 (Fc fusion, bivalent; P329G+LALA) APEAAGGPSVFLFPPKPKDTLMISRTPEVTCVVVDVSHEDPEVKFNWYVDGVEVHNAKTKPREEQYNSTYRVVSVLTVLHQDWLNGKEYKCKVSNKALGAPIEKTISKAKGQPREPQVYTLPPSRDELTKNQVSLTCLVKGFYPSDIAVEWFSEAQKESNYKTTPPVLDSDGSFFLYSKLTVDKSRWQQGNLFACEVMHEALHNHYTYKLLSLSPGK | 1.66 µM | 
9 | 42.8.16 (Fc fusion, bivalent; P329G+LALA) APEAAGGPSVFLFPPKPKDTLMISRTPEVTCVVVDVSHEDPEVKFNWYVDGVEVHNAKTKPREEQYNSTYRVVSVLTVLHQDWLNGKEYKCKVSNKALGAPIEKTISKAKGQPREPQVYTLPPSRDELTKNQVSLTCLVKGFYPSDIAVEWFSGAQKLNNYKTTPPVLDSDGSFFLYSKLTVDKSRWQQGNLFACEVMHEALHNHYTYKLLSLSPGK | 7.81 µM | 
10 | 42.8.94 (Fc fusion, bivalent; P329G+LALA) APEAAGGPSVFLFPPKPKDTLMISRTPEVTCVVVDVSHEDPEVKFNWYVDGVEVHNAKTKPREEQYNSTYRVVSVLTVLHQDWLNGKEYKCKVSNKALGAPIEKTISKAKGQPREPQVYTLPPSRDELTKNQVSLTCLVKGFYPSDIAVEWFSEASKLNNYKTTPPVLDSDGSFFLYSKLTVDKSRWQQGNLFACEVMHEALHNHYTYKLLSLSPGK | 4.07 µM | 22.2 µM
11 | 42.8.64 (Fc fusion, bivalent; P329G+LALA) APEAAGGPSVFLFPPKPKDTLMISRTPEVTCVVVDVSHEDPEVKFNWYVDGVEVHNAKTKPREEQYNSTYRVVSVLTVLHQDWLNGKEYKCKVSNKALGAPIEKTISKAKGQPREPQVYTLPPSRDELTKNQVSLTCLVKGFYPSDIAVEWFSDDQKLNNYKTTPPVLDSDGSFFLYSKLTVDKSRWQQGNLFACEVMHEALHNHYTYKLLSLSPGK | 5.69 µM | 
12 | 42.2.1.2 (Fc fusion, bivalent; P329G+LALA) APEAAGGPSVFLFPPKPKDTLMISRTPEVTCVVVDVSHEDPEVKFNWYVDGVEVHNAKTKPREEQYNSTYRVVSVLTVLHQDWLNGKEYKCKVSNKALGAPIEKTISKAKGQPREPQVYTLPPSRDELTKNQVSLTCLVKGFYPSDIAVEWFYDDSKLTNYKTTPPVLDSDGSFFLYSKLTVDKSRWQQGNLFACEVMHEALHNHYTYKLLSLSPGK | 0.507 µM | 9.14 µM
13 | 42.8.55 (Fc fusion, bivalent; P329G+LALA) APEAAGGPSVFLFPPKPKDTLMISRTPEVTCVVVDVSHEDPEVKFNWYVDGVEVHNAKTKPREEQYNSTYRVVSVLTVLHQDWLNGKEYKCKVSNKALGAPIEKTISKAKGQPREPQVYTLPPSRDELTKNQVSLTCLVKGFYPSDIAVEWFSDASKENNYKTTPPVLDSDGSFFLYSKLTVDKSRWQQGNLFACEVMHEALHNHYTYKLLSLSPGK | 6.16 µM | 
14 | 42.8.88 (Fc fusion, bivalent; P329G+LALA) APEAAGGPSVFLFPPKPKDTLMISRTPEVTCVVVDVSHEDPEVKFNWYVDGVEVHNAKTKPREEQYNSTYRVVSVLTVLHQDWLNGKEYKCKVSNKALGAPIEKTISKAKGQPREPQVYTLPPSRDELTKNQVSLTCLVKGFYPSDIAVEWFSEAQKLNNYKTTPPVLDSDGSFFLYSKLTVDKSRWQQGNLFACEVMHEALHNHYTYKLLSLSPGK | 9.16 µM | 
15 | 42.8.56 (Fc fusion, bivalent; P329G+LALA) APEAAGGPSVFLFPPKPKDTLMISRTPEVTCVVVDVSHEDPEVKFNWYVDGVEVHNAKTKPREEQYNSTYRVVSVLTVLHQDWLNGKEYKCKVSNKALGAPIEKTISKAKGQPREPQVYTLPPSRDELTKNQVSLTCLVKGFYPSDIAVEWFSDASKETNYKTTPPVLDSDGSFFLYSKLTVDKSRWQQGNLFACEVMHEALHNHYTYKLLSLSPGK | 4.83 µM | 28.4 µM
16 | 6.5.11.5.42 (Fc fusion, P329G+LALA) APEAAGGPSVFLFPPKPKDTLMISRTPEVTCVVVDVSHEDPEVKFNWYVDGVEVHNAKTKPREEQYNSTYRVVSVLTVLHQDWLNGKEYKCKVSNKALGAPIEKTISKAKGQPREPQVYTLPPSRDELTKNQVSLTCLVKGFYPSDIAVYWFSGGQRENNYKTTPPVLDSDGSFFLYSKLTVDKSRWQQGNLFACEVMHEALHNHYTYKLLSLSPGK | 2 µM | 
17 | 42.2.3-1H (Fc fusion, P329G+LALA) APEAAGGPSVFLFPPKPKDTLMISRTPEVTCVVVDVSHEDPEVKFNWYVDGVEVHNAKTKPREEQYNSTYRVVSVLTVLHQDWLNGKEYKCKVSNKALGAPIEKTISKAKGQPREPQVYTLPPSRDELTKNQVSLTCLVKGFYPSDIAVEWFYGNAKETNYKTTPPVLDSDGSFFLYSKLTVDKSRWQQGNLFACEVMHEALHNHYTYKLLSLSPGK | 0.22 µM | 2 µM
18 | 42.8.172 (Fc fusion, bivalent; P329G+LALA) APEAAGGPSVFLFPPKPKDTLMISRTPEVTCVVVDVSHEDPEVKFNWYVDGVEVHNAKTKPREEQYNSTYRVVSVLTVLHQDWLNGKEYKCKVSNKALGAPIEKTISKAKGQPREPQVYTLPPSRDELTKNQVSLTCLVKGFYPSDIAVEWFYDDQKLNNYKTTPPVLDSDGSFFLYSKLTVDKSRWQQGNLFACEVMHEALHNHYTYKLLSLSPGK | 0.795 µM | 
19 | 42.8.77 (Fc fusion, bivalent; P329G+LALA) APEAAGGPSVFLFPPKPKDTLMISRTPEVTCVVVDVSHEDPEVKFNWYVDGVEVHNAKTKPREEQYNSTYRVVSVLTVLHQDWLNGKEYKCKVSNKALGAPIEKTISKAKGQPREPQVYTLPPSRDELTKNQVSLTCLVKGFYPSDIAVEWFSEGQKLTNYKTTPPVLDSDGSFFLYSKLTVDKSRWQQGNLFACEVMHEALHNHYTYKLLSLSPGK | 8.1 µM | 
20 | 42.8.95 (Fc fusion, bivalent; P329G+LALA) APEAAGGPSVFLFPPKPKDTLMISRTPEVTCVVVDVSHEDPEVKFNWYVDGVEVHNAKTKPREEQYNSTYRVVSVLTVLHQDWLNGKEYKCKVSNKALGAPIEKTISKAKGQPREPQVYTLPPSRDELTKNQVSLTCLVKGFYPSDIAVEWFSEASKLTNYKTTPPVLDSDGSFFLYSKLTVDKSRWQQGNLFACEVMHEALHNHYTYKLLSLSPGK | 4.13 µM | 23.1 µM

From patent publication US20250145729A1 (DENALI THERAPEUTICS, published 2025)
